1 molecule from patent US20130149329A1 (BOARD OF REGENTS FOR OKLAHOMA STATE UNIVERSITY, published 2013) can be followed below.

The target of this assay is T1, His-tag IpaB (Shigella flexneri 2457T IpaB with N-terminal His-tag, expressed from pET15b) (Shigella flexneri 2457T, UniProt P18011 1-580).
T1 construct: not shown: N-terminal His-tag from vector pET15b
T1 sequence: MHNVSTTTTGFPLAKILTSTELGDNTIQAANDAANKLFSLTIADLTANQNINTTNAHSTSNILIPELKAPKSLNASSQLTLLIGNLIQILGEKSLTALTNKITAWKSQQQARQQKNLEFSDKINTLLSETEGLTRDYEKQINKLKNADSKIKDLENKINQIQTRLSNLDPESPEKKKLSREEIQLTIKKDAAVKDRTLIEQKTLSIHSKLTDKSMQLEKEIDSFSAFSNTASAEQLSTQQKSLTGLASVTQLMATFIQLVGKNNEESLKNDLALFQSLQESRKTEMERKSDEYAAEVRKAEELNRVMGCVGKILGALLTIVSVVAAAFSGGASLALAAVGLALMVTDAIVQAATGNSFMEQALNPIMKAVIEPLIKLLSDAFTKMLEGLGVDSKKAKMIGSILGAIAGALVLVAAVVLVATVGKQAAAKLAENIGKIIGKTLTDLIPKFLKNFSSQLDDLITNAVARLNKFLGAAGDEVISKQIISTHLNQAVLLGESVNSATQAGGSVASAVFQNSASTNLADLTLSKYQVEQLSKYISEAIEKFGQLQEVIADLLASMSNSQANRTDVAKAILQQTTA
Nature of the assay: co-expression and co-purification.

B1: IpgC (cognate chaperone of IpaB, untagged, expressed from pACYCDuet-1) (other)
chain: MSLNITENESISTAVIDAINSGATLKDINAIPDDMMDDIYSYAYDFYNKGRIEEAEVFFRFLCIYDFYNVDYIMGLAAIYQIKEQFQQAADLYAVAFALGKNDYTPVFHTGQCQLRLKAPLKAKECFELVIQHSNDEKLKIKAQSYLDAIQDIKE
As to B1, the binding result was “binds”.
